Reference: US6989260B2, “Human poly(ADP-ribose) polymerase 2 materials and methods” (ICOS Corporation, priority 1999, dated 2006)

B1: FB-hPARP2: full-length hPARP2 protein fused to a poly-His tag (SEQ ID NO:59) (protein)
chain: MRGSHHHHHHDYDIPTTENLYFQGAMDPEFKGLRRPMAARRRRSTGGGRARALNESKRVNNGNTAPEDSSPAKKTRRCQRQESKKMPVAGGKANKDRTEDKQDGMPGRSWASKRVSESVKALLLKGKAPVDPECTAKVGKAHVYCEGNDVYDVMLNQTNLQFNNNKYYLIQLLEDDAQRNFSVWMRWGRVGKMGQHSLVACSGNLNKAKEIFQKKFLDKTKNNWEDREKFEKVPGKYDMLQMDYATNTQDEEETKKEESLKSPLKPESQLDLRVQELIKLICNVQAMEEMMMEMKYNTKKAPLGKLTVAQIKAGYQSLKKIEDCIRAGQHGRALMEACNEFYTRIPHDFGLRTPPLIRTQKELSEKIQLLEALGDIEIAIKLVKTELQSPEHPLDQHYRNLHCALRPLDHESYEFKVISQYLQSTHAPTHSDYTMTLLDLFEVEKDGEKEAFREDLHNRMLLWHGSRMSNWVGILSHGLRIAPPEAPITGYMFGKGIYFADMSSKSANYCFASRLKNTGLLLLSEVALGQCNELLEANPKAEGLLQGKHSTKGLGKMAPSSAHFVTLNGSTVPLGPASDTGILNPDGYTLNYNEYIVYNPNQVRMRYLLKVQFNFLQLW
modifications: poly-His tag

System: hPARP2 poly(ADP-ribose) polymerase activity
Experiment: Poly(ADP-ribose) polymerase activity assay (32P-NAD+ incorporation, SDS-PAGE, autoradiography)
Assay type: biochemical, human
Conditions: 250 ng PARP1A/PARP2B or 25 ng FB-hPARP2, 10 min at room temperature, 2.5 μM unlabeled NAD+, E. coli Strain B DNA, gamma-[32P]-NAD+
Text: The PARP activity of hPARP2, or some substructure thereof, can be measured by the ability of that component to incorporate the ADP-ribose unit from NAD into polymers of ADP-ribose coupled to a protein substrate.
A fusion protein, designated PARP1A/PARP2B, containing aa 1–662 of hPARP1 (SEQ ID NO:25) fused upstream of aa 230–583 of hPARP2 (SEQ ID NO:2) was used in the measurement of hPARP2 poly(ADP-ribose) polymerase activity. PARP1A/PARP2B contained the DNA binding domain (aa 1–373 of SEQ ID NO:25) and automodification domain (aa 373–525 of SEQ ID NO:25) of hPARP1 and the putative catalytic domain of hPARP2 (aa […] of SEQ ID NO:2).
In addition to PARP1A/PARP2B, a full-length hPARP2 protein fused to a poly-His tag (FB-hPARP2) was constructed for use in the measurement of hPARP2 poly(ADP-ribose) polymerase activity. The construction of FB-hPARP2 was carried out as follows.
For poly(ADP-ribose) polymerase activity assays, reagents were obtained from Sigma, unless otherwise indicated. PARP1A/PARP2B (250 ng) or FB-hPARP2 (25 ng) protein was incubated for 10 min at room temperature in assay buffer (total volume of 20 μL) containing 100 mM Tris, pH 8.0, 1 mM MgCl2, 10% glycerol, 1.5 mM dithiothreitol (Boehringer Mannheim/Roche Molecular Biochemicals, Indianapolis, Ind.), 2.5 μM unlabeled NAD^+, 16.7 μg/mL E. coli Strain B DNA, and 0.33 μCi gamma-[^32P]-NAD^+ (NEN, Boston, Mass.). […]

Molecule	intrinsic poly(ADP-ribose) polymerase activity (ability to produce poly(ADP-ribose) polymers)
PARP1A/PARP2B: fusion protein containing aa 1–662 of hPARP1 fused upstream of aa 230–583 of hPARP2; His tag leader, Strep-tag (SEQ ID NO:47)	possessed intrinsic poly(ADP-ribose) polymerase activity
B1	possessed intrinsic poly(ADP-ribose) polymerase activity
